Changes are numbered by the printed parent chain. Numbers in names are those of the source.
Assays:
FcγRIIIA 158V = biological target: T1, FcγRIIIA 158V (human, UniProt P08637 17-208, limits assumed); assay: BIAcore, ch4-4-20
T1 construct: valine at 158; also called 3aV158; CD16A 158V

[1] = biological target: T2, soluble dimeric FcγRIIB-Fc fusion protein (human, UniProt P31994 43-217); assay: ELISA
T2 construct: extracellular domain; also called FcRIIB-Fc; FcγRIIB-G2; not shown: hinge-CH2-CH3 domain of human IgG2
T2 sequence (looked up): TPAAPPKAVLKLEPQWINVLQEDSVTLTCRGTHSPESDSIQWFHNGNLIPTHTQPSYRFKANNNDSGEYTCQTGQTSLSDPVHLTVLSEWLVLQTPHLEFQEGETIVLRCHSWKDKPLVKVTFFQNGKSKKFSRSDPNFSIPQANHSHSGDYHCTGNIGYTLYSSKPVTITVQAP

[2] = biological target: T2, soluble dimeric FcγRIIB-Fc fusion …; assay: BIAcore

T1 sequence (P08637 17-208 F176V limits assumed): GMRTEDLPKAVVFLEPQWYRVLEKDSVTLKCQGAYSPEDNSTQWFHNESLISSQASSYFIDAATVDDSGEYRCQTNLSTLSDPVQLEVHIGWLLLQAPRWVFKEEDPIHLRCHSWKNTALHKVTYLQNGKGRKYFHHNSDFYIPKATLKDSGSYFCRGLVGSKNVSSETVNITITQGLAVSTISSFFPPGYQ

B1: ch 4-4-20 E293V, Q295E, A327T (antibody)
chain: EPKSCDKTHTCPPCPAPELLGGPSVFLFPPKPKDTLMISRTPEVTCVVVDVSHEDPEVKFNWYVDGVEVHNAKTKPRVEEYNSTYRVVSVLTVLHQDWLNGKEYKCKVSNKTLPAPIEKTISKAKGQPREPQVYTLPPSREEMTKNQVSLTCLVKGFYPSDIAVEWESNGQPENNYKTTPPVLDSDGSFFLYSKLTVDKSRWQQGNVFSCSVMHEALHNHYTQKSLSLSPGK
With B1 the “Koff WT/Mut” value (FcγRIIIA 158V) was 0.86.

B2: ch 4-4-20 Y319F, P352L, P396L (antibody)
chain: B1 chain with V78E, E80Q, Y104F, T112A, P137L, P181L
With B2 the “Koff WT/Mut” value (FcγRIIIA 158V) was 1.23.

B3: chimeric 4-4-20 anti-fluorescein antibody, wild type Fc (antibody)
chain 1: not shown
chain 2: DVVMTQTPLSLPVSLGDQASISCRSSQSLVHSNGNTYLRWYLQKPGQSPKVLIYKVSNRFSGVPDRFSGSGSGTDFTLKISRVEAEDLGVYFCSQSTHVPWTFGGGTKLEIKRTVAAPSVFIFPPSDEQLKSGTASVVCLLNNFYPREAKVQWKVDNALQSGNSQESVTEQDSKDSTYSLSSTLTLSKADYEKHKVYACEVTHQGLSSPVTKSFNRGEC
For B3, the “ELISA, OD” value [1] was 0.4 OD, the Kd [2] was 61.4 nM and the koff [2] was 0.085 s⁻¹.

From patent US20110243941A1 (published 2011)
